Results as given in patent US20130078247A1 (Boehringer Ingelheim, published 2013).
Changes are numbered by the printed parent chain. Each block holds one binder with its values, some of them ahead of it.

Tests used:
[1] = target: T1, human DLL4, full length, overexpressed on CHO or HEK293 cells (human, UniProt Q9NR61 27-685); assay: periplasmic extract; FMAT, Notch1/Fc on CHO-hDLL4
T1 construct: also called CHO-hDLL4; CHO-hDII4
From the text: (§1) All calculations are based on the FL1_total signal which comprises the average of the fluorescence per well times the number of counts per well.

[2] = target: T2, mouse DLL4, full length, overexpressed on CHO or HEK293 cells (mouse, UniProt Q9JI71 27-686); assay: periplasmic extract; FMAT, Notch1/Fc on CHO-mDLL4
T2 construct: whole, on cells; also called CHO-mDLL4; CHO-mDII4
T2 sequence (Q9JI71 27-686): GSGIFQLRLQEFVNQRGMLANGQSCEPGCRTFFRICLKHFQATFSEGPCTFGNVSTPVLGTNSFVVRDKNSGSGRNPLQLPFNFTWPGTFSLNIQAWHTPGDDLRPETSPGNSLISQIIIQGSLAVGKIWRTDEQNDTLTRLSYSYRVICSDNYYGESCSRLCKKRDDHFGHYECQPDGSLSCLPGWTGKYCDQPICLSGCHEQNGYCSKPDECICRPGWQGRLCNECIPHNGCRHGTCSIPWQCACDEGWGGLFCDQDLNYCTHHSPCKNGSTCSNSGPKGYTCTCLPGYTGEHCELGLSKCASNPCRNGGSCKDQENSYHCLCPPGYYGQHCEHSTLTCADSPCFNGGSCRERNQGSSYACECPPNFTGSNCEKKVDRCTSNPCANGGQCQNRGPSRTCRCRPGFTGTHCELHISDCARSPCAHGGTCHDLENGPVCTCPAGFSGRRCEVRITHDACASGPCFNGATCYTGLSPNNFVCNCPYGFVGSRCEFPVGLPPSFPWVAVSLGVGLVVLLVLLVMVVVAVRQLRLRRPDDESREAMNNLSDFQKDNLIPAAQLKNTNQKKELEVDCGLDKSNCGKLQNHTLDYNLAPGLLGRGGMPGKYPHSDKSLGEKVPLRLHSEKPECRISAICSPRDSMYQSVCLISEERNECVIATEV
From the text: as §1

[3] = target: T1, human DLL4, full length, overexpressed …; assay: cell-based or functional assay
[4] = target: T3, recombinant human DLL4 extracellular domain, C-terminally His-tagged (R&D Systems) (human, UniProt Q9NR61 25-522, biotinylated in the competition assays (sites not given)); assay: cell-based or functional assay
human Jagged-1 = target: T4, human Jagged-1 (human, UniProt P78504 34-1067, limits assumed); assay: binding ELISA, coated hJagged-1
T4 construct: also called hJag-1; hJAG1
Procedure: (§2) Absence of binding to homologous ligands human DLL1 and human Jagged-1 is assessed via solid phase binding assay (ELISA). In brief, human DLL1 (Alexis, San Diego, Calif., USA) and human Jagged-1 (Alexis, San Diego, Calif., USA) are coated overnight at 4° C. at 1 μg/mL in a 96-well MaxiSorp plate (Nunc, Wiesbaden, Germany). Wells are blocked with a casein solution (1% in PBS). VHHs are applied as dilution series and binding is detected using a mouse anti-myc (Roche) and an anti-mouse-AP conjugate (Sigma, St. Louis, Mo., USA).

human DLL1 = target: T5, human DLL1 (human, UniProt O00548 18-545, limits assumed); assay: binding ELISA, coated hDLL1
T5 construct: also called hDLL1; rhDLL1
T5 sequence (looked up): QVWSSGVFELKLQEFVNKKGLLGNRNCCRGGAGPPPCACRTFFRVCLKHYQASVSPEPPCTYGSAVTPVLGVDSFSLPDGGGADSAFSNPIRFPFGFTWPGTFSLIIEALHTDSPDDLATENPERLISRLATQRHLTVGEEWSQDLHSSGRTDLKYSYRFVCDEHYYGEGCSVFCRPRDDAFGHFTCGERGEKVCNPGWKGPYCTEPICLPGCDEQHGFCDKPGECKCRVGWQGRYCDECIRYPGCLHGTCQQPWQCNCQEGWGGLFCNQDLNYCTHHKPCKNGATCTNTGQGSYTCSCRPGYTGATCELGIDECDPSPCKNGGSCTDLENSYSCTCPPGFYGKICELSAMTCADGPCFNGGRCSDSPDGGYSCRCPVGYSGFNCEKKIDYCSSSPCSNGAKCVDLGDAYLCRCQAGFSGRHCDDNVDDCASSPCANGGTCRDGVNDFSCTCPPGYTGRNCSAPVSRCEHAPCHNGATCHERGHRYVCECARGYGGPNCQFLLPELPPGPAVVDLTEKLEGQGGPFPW
Procedure: as §2

recombinant human DLL4 [5] = target: T6, recombinant human DLL4 (human, UniProt Q9NR61 25-522); assay: cell-based or functional assay
[6] = target: T7, recombinant human DLL1 (Alexis) (human, UniProt O00548 18-545, limits assumed); assay: rhDLL1/rhJAG1 binding ELISA
T7 construct: also called hDLL1; rhDLL1
T7 sequence (looked up): T5 sequence (looked up)

[7] = target: T8, recombinant human Jagged-1 (Alexis) (human, UniProt P78504 34-1067, limits assumed); assay: rhDLL1/rhJAG1 binding ELISA
T8 construct: also called hJagged-1; hJAG1

recombinant mouse DLL4 = target: T9, recombinant mouse DLL4 (mouse, UniProt Q9JI71 27-532); assay: ProteOn off-rate screen, periplasmic extract, mDLL4 on chip
T9 construct: extracellular domain; also called rmDLL4; mDLL4; not shown: C-terminal His tag
T9 sequence (Q9JI71 27-532): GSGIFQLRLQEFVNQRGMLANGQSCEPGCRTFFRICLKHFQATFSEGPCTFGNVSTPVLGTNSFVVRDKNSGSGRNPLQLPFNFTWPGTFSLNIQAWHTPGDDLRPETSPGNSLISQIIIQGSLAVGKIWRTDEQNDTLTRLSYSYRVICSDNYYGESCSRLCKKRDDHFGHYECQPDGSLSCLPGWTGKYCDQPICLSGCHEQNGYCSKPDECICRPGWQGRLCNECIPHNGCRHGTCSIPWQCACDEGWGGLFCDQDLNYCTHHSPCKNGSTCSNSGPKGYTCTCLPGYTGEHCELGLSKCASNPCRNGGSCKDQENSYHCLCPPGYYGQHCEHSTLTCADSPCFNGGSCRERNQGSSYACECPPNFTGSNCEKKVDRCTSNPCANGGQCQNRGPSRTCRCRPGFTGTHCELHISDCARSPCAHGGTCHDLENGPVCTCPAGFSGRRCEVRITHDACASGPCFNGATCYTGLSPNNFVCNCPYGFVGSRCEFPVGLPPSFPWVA
Procedure: (§3) In a first cycle, amino acid substitutions are introduced randomly in both framework (FW) and complementary determining regions (CDR) using the error-prone PCR method. […] After a polish step, PCR products are inserted via unique restriction sites into a vector designed to facilitate phage display of the VHH library. […] No selections on murine DLL4 are included as (conservation of) cross-reactivity is assessed at the screening level. Individual mutants are produced as recombinant protein using an expression vector derived from pUC119, which contains the LacZ promoter, a resistance gene for ampicillin, a multiple cloning site and an ompA leader sequence (pAX50). E. coli TG1 cells are transformed with the expression vector library and plated on agar plates (LB+Amp+2% glucose). Single colonies are picked from the agar plates and grown in 1 mL 96-deep-well plates. VHH expression is induced by adding IPTG (1 mM). Periplasmic extracts (in a volume of ˜80 uL) are prepared according to standard methods and screened for binding to recombinant human and mouse DII4 in a ProteOn (BioRad, Hercules, Calif., USA) off-rate assay. […] Periplasmic extract of affinity matured clones is diluted 1/10 and injected across the “analyte channels” A1-A6. An average off-rate is calculated of the wild type clones present in the plate and served as a reference to calculate off-rate improvements.

recombinant human DLL4 [8] = target: T6, recombinant human DLL4; assay: ProteOn off-rate screen, periplasmic extract, hDLL4 on chip
Procedure: as §3

[9] = target: T3, recombinant human DLL4 extracellular …; assay: periplasmic extract; hDLL4 ELISA
[10] = target: T3, recombinant human DLL4 extracellular …; assay: periplasmic extract; hDLL4/hNotch1 AlphaScreen
Procedure: To this mixture, the acceptor beads and the streptavidin donor beads are added and further incubated for 1 hour at room temperature. Fluorescence is measured by reading plates on the Envision Multilabel Plate reader (Perkin Elmer, Waltham, Mass., USA) using an excitation wavelength of 680 nm and an emission wavelength of 520 nm.

[11] = target: T10, recombinant mouse DLL4 extracellular domain, C-terminally His-tagged (R&D Systems) (mouse, UniProt Q9JI71 27-525); assay: binding ELISA on coated rmDLL4
T10 construct: range 1-525; also called rmDLL4; mDLL4; not shown: C-terminal His tag
T10 sequence (Q9JI71 27-525 limits assumed): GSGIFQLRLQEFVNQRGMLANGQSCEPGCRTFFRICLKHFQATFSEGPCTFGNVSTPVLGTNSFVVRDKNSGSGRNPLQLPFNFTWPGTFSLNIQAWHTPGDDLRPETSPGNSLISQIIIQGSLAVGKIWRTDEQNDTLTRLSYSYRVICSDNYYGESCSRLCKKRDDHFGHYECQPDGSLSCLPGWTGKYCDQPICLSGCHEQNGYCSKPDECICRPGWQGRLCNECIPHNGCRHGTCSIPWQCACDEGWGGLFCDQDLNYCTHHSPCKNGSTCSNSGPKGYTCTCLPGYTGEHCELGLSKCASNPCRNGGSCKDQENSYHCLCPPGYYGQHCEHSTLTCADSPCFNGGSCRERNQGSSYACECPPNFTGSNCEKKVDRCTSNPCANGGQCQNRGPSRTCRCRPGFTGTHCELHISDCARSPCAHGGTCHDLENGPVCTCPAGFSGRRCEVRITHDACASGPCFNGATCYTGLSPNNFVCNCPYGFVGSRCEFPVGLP
Procedure: In order to determine cross-reactivity to mouse DII4 a binding ELISA is performed. […] Wells are blocked with a casein solution (1% in PBS). VHHs are applied as dilution series and binding is detected using a mouse anti-myc (Roche) and an anti-mouse-AP conjugate (Sigma, St Louis, Mo., USA) (FIG. 7).

% inhibition [1]: 74% | % inhibition [2]: 84% | IC50, DLL4/Notch1 reporter assay (luciferase; co-culture with HEK293-hDII4) [3]: 1740 nM | concentration giving complete inhibition, HUVEC proliferation assay [4]: 10 µM
B1: DLLBII115A05 (VHH)
VHH: EVQLVESGGGLVQPGGSLRLSCAASGFTFGSYDMSWVRRSPGKGPEWVSSINSGGGSTYYADFVKGRFTISRDNAKNTLYLQMNSLKPEDTAVYYCAADRYIRARQGDYWGAYEYDYWGQGTQVTVSS
notes: also called 115A5; DLLBII115A5; not shown: C-terminal c-myc and His6 tags

binding result (human Jagged-1): no binding | binding result (human DLL1): no binding | IC50 (nM) in the DLL4 proliferation assay (HUVEC, experiment 1) (recombinant human DLL4 [5]): 10000 nM
B2: DLLBII115A05 (VHH)
VHH: B1 VHH
notes: also called 115A5; DLLBII115A5; not shown: C-terminal c-myc tag and His6 tag

binding result [6]: no binding | binding result [7]: no binding
B3: DLLBII015 (VHH)
VHH: B1 VHH with F29I, S50A, F63Y, R103W, D108E, E114A
notes: not shown: C-terminal c-myc and His6 tags

binding result [6]: no binding | binding result [7]: no binding
B4: DLLBII136C07 (VHH)
VHH: B1 VHH with F63Y, R103W, D108E
notes: as for B3

% inhibition [1]: 94% | % inhibition [2]: 86% | IC50, DLL4/Notch1 reporter assay (luciferase; co-culture with HEK293-hDII4) [3]: 964 nM | concentration giving complete inhibition, HUVEC proliferation assay [4]: 10 µM
B5: DLLBII104G01 (VHH)
VHH: EVQLVESGGGLVQAGGSLRLSCAASGFTFDDYAIGWFRQAPGKEREGVSCISSSDGSTYYADSVKGRFTISSDNAKNTVYLQMNSLKPEDTAVYYCATAWCDSSWYRSFVGYWGQGTQVTVSS
notes: also called 104G1; DLLBII104G1; not shown: C-terminal c-myc and His6 tags

IC50 (nM) in the DLL4 proliferation assay (HUVEC, experiment 1) (recombinant human DLL4 [5]): 11 nM | IC50 (nM) in the DLL4 proliferation assay (HUVEC, experiment 2) (recombinant human DLL4 [5]): 6.8 nM
B6: DLLBII56A09 (VHH, not shown: small tags and cut ends)
VHH: EVQLVESGGGLVQPGGSLRLSCAASGFTFDDYAIGWFRQAPGKEPEGISCISSSGGITYYADSVKGRFTTSRDNAKNTVYLQMNSLKPEDTAVYYCATPGIAACRGIHYTGQGTQVTVSS

binding result [6]: no binding | binding result [7]: no binding
B7: DLLBII129D08 (VHH)
VHH: EVQLVESGGGLVQAGGSLRLSCAASGRTFSSYAMAWYRQAPGKEREYVAAIRWSGGTAYYADSVQGRFTISRDNAKNTVYLQMNSLKPEDTAVYYCANRAPDTRLEPYLYDYWGQGTQVTVSS
notes: as for B3

binding result (human Jagged-1): no binding | fold (off-rate improvement over DLLBII101G08) (recombinant mouse DLL4): 35 fold | binding result (human DLL1): no binding | fold (off-rate improvement over DLLBII101G08) (recombinant human DLL4 [8]): 38 fold
B8: DLLBII129D08 (VHH)
VHH: B7 VHH
notes: not shown: C-terminal c-myc tag and (His)6 tag

binding result (human Jagged-1): no binding | fold (off-rate improvement over DLLBII101G08) (recombinant mouse DLL4): 1 fold | binding result (human DLL1): no binding | fold (off-rate improvement over DLLBII101G08) (recombinant human DLL4 [8]): 1 fold | IC50 (nM) in the DLL4 proliferation assay (HUVEC, experiment 1) (recombinant human DLL4 [5]): 401 nM | IC50 (nM) in the DLL4 proliferation assay (HUVEC, experiment 2) (recombinant human DLL4 [5]): 112 nM
B9: DLLBII101G08 (VHH)
VHH: B7 VHH with Y37F, Y47F, P101A, E106G, L109E
notes: also called 101G8; DLLBII101G8; not shown: C-terminal c-myc tag and His6 tag

binding result (human Jagged-1): no binding | fold (off-rate improvement over DLLBII101G08) (recombinant mouse DLL4): 26 fold | binding result (human DLL1): no binding | fold (off-rate improvement over DLLBII101G08) (recombinant human DLL4 [8]): 28 fold
B10: DLLBII129E11 (VHH)
VHH: B7 VHH with E106R
notes: as for B8

binding result [6]: no binding | binding result [7]: no binding
B11: DLLBII129B05 (VHH)
VHH: B7 VHH with E106A, L109E, Y112H
notes: as for B3

binding result [6]: no binding | binding result [7]: no binding
B12: DLLBII129E11 (VHH)
VHH: B7 VHH with E106R
notes: as for B3

binding result (human Jagged-1): no binding | fold (off-rate improvement over DLLBII101G08) (recombinant mouse DLL4): 20 fold | binding result (human DLL1): no binding | fold (off-rate improvement over DLLBII101G08) (recombinant human DLL4 [8]): 24 fold
B13: DLLBII129B05 (VHH)
VHH: B7 VHH with E106A, L109E, Y112H
notes: as for B8

% inhibition [9]: 98% | % inhibition [10]: 88% | binding result [11]: no binding (tested: 2.5e-7 M)
B14: DLLBII17F10 (VHH)
VHH: EVQLVESGGGLVQAGGSLRLSCASSGRTLLNYAMGWFRQAPGKEREFVSGINWSGGSTYYADSVKGRFTISRDNAENTVYLHMNSLKPEDTAVYYCAAAHDNYWFTDDSLGRGLKYWGQGTQVTVSS
notes: as for B3

% inhibition [1]: 75% | % inhibition [2]: 83% | IC50, DLL4/Notch1 reporter assay (luciferase; co-culture with HEK293-hDII4) [3]: 5160 nM
B15: DLLBII96C03 (VHH)
VHH: EVQLVESGGGLVQPGGSLRLSCAASGFTFGNYDMSWVRQAPGKGPEWVSAINSGGGDTYYADSVKGRFTISRDNAKNTLYLQMNSLKPEDTAVYYCATPRGWGPTGPHEYGYWGQGTQVTVSS
notes: also called 96CO3; 96C3; not shown: C-terminal c-myc and His6 tags

% inhibition [1]: 74% | % inhibition [2]: 71% | IC50, DLL4/Notch1 reporter assay (luciferase; co-culture with HEK293-hDII4) [3]: 4660 nM
B16: DLLBII62C11 (VHH)
VHH: EVQLMESGGGLVQPGGSLRLSCVAAGFTFSNYYMSWVRQAPGKGLEWVSVISPDGSNTYYADTVKGRFTISRGNAKNTLFLQMTGLKSEDAAVYYCARGSGSWGVHGQGTQVTVSS
notes: as for B3
